Results taken from patent US20120207741A1.

Target: protein of the maize/soybean meal (SBM) substrate (6:4)

% dig. CP (digested protein, peptides of 1500 Dalton or below, gel filtration HPLC) in the in vitro pancreatic insufficiency digestion model (% dig. CP of total protein): 49.9
Substance: protease derived from Nocardiopsis sp. NRRL 18262 (SEQ ID NO: 1) (enzyme)
